As usually defined, the Kd is the equilibrium constant for the complex coming apart. Higher therefore signals lower affinity.

The values that follow come from paper doi:10.1101/2025.01.22.634233 (bioRxiv, 2025).

Series [1] concerns the molecule itself. As to the kind of experiment: cross-linking.
Series [2] addresses T1, biotinylated Avi-BARD1^554-777, wild type (human, UniProt Q99728 554-777, biotinylated by MBP-BirA).
T1 sequence: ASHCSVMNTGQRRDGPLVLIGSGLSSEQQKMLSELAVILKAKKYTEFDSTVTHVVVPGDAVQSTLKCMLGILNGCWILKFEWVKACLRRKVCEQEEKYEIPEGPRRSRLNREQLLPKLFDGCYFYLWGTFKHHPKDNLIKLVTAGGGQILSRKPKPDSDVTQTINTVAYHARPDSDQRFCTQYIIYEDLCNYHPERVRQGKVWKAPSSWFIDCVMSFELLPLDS
Briefly: BLI.

B1: BARD1 BRCT (BARD1^554-777), wild type (domain or fragment)
chain: ASHCSVMNTGQRRDGPLVLIGSGLSSEQQKMLSELAVILKAKKYTEFDSTVTHVVVPGDAVQSTLKCMLGILNGCWILKFEWVKACLRRKVCEQEEKYEIPEGPRRSRLNREQLLPKLFDGCYFYLWGTFKHHPKDNLIKLVTAGGGQILSRKPKPDSDVTQTINTVAYHARPDSDQRFCTQYIIYEDLCNYHPERVRQGKVWKAPSSWFIDCVMSFELLPLDS
In the case of B1, in series [1], the binding result is “binds”.

B2: pS5pS7 GST-(CTD)26 (domain or fragment)
chain: not shown
modifications: phosphoserine at S5 and S7 of the CTD heptads (pS5pS7)
B2 returned a Kd in series [2] of 193 nM.
